Assay results published in PMC9620489, “Insights into the structure and function of the histidine kinase ComP from Bacillus amyloliquefaciens based on molecular modeling” (Bioscience Reports, 2022).

Biological target: T1, ComPS (residues 563-763 of the histidine kinase ComP from Bacillus amyloliquefaciens Q-426) (Bacillus amyloliquefaciens Q-426)
T1 construct: No removal of the 6xHis tag is described; The forward primer F-BaComPS has an NcoI site followed by AT, which may add Met-Asp before R563; also called BaComPS; truncated ComPS protein; source: E. coli BL21 (RIL), pPROEXHTa vector, purified (Ni-NTA)
Test: MST; microscale thermophoresis of ComPS with ComA; labelled partner, buffer and temperature not told in the text shown (curve in Supplementary Figure S8)
Conditions: both partners purified

B1: response regulator ComA (natural protein)
chain: MKKILVIDDHPAVMEGTKTILETDTNLSVDCLSPDASEQFVLRHDFSAYDLILMDLNLGDDISGIELSKKILKENPLCKIIVYTGYEVEDYFEESIRAGLHGAISKTESKEKIMQYIYHVLNGQILVDFSYFKQLMTQQKTKTSSSPQSEQDRLTPRERHILQEVEKGLTNQEIADALHLSKRSIEYSLTSIFNKLNVGSRTEAVLIAKSDNVL
In the case of B1, the Kd is reported as 78 µM.
